For 70 variants, abundance fitness results are on record in the Human Domainome abundance scans (Beltran et al. 2025).

To fix the notation:
B1: Advillin, residues 785 to 819; numbered along this chain, O75366 (parent)
chain: LSEQDFVSVFGITRGQFAALPGWKQLQMKKEKGLF

± gives the uncertainty stated by the source.

Variants of B1 are the subject of this data set. The experiment in a line: abundance fitness (aPCA) (normalised: wild type 0, dead -1); higher = more abundant; growth selection in yeast, the domain comes from the species named. The settings on record: Homo sapiens.
On to LSEQDFRSVFGITRGQFAALPGWKQLQMKKEKGLF, for which the abundance fitness was -0.139 ± 0.056. Consider LSEQDFISVFGITRGQFAALPGWKQLQMKKEKGLF, for which the abundance fitness was -0.028 ± 0.1. Under LSEQDFWSVFGITRGQFAALPGWKQLQMKKEKGLF stands -0.343 ± 0.12; under LSEQDFQSVFGITRGQFAALPGWKQLQMKKEKGLF, 0.004 ± 0.072. With LSEQDFESVFGITRGQFAALPGWKQLQMKKEKGLF the figure was 0.105 ± 0.07; with LSEQDFDSVFGITRGQFAALPGWKQLQMKKEKGLF, -0.085 ± 0.1.

As for LSEQDFLSVFGITRGQFAALPGWKQLQMKKEKGLF, the abundance fitness turned out to be 0.04 ± 0.062. With LSEQDFSSVFGITRGQFAALPGWKQLQMKKEKGLF the figure was 0.071 ± 0.11. Consider LSEQDFGSVFGITRGQFAALPGWKQLQMKKEKGLF, for which the abundance fitness is -0.306 ± 0.057.

Take LSEQDFFSVFGITRGQFAALPGWKQLQMKKEKGLF: the abundance fitness was -0.038 ± 0.14. Regarding LSEQDFTSVFGITRGQFAALPGWKQLQMKKEKGLF, the abundance fitness was -0.115 ± 0.088. For the variant LSEQDFASVFGITRGQFAALPGWKQLQMKKEKGLF, the abundance fitness is -0.149 ± 0.054. As for LSEQDFKSVFGITRGQFAALPGWKQLQMKKEKGLF, the abundance fitness is -0.384 ± 0.2. Under LSEQDFMSVFGITRGQFAALPGWKQLQMKKEKGLF stands -0.291 ± 0.17. On to LSEQDFVSVDGITRGQFAALPGWKQLQMKKEKGLF, for which the abundance fitness is -0.316 ± 0.12. In the case of LSEQDFVSVEGITRGQFAALPGWKQLQMKKEKGLF, the abundance fitness was -0.285 ± 0.086. With LSEQDFVSVAGITRGQFAALPGWKQLQMKKEKGLF the figure was -0.398 ± 0.07; with LSEQDFVSVHGITRGQFAALPGWKQLQMKKEKGLF, -0.932 ± 0.18; with LSEQDFVSVKGITRGQFAALPGWKQLQMKKEKGLF, -0.319 ± 0.089. For LSEQDFVSVCGITRGQFAALPGWKQLQMKKEKGLF, the abundance fitness was -0.31 ± 0.082. With LSEQDFVSVGGITRGQFAALPGWKQLQMKKEKGLF the figure was -0.27 ± 0.058; with LSERDFVSVFGITRGQFAALPGWKQLQMKKEKGLF, -0.11 ± 0.053; with LSEIDFVSVFGITRGQFAALPGWKQLQMKKEKGLF, 0.237 ± 0.092. With LSEDDFVSVFGITRGQFAALPGWKQLQMKKEKGLF the figure was -0.592 ± 0.12; with LSELDFVSVFGITRGQFAALPGWKQLQMKKEKGLF, 0.016 ± 0.054; with LSEKDFVSVFGITRGQFAALPGWKQLQMKKEKGLF, 0 ± 0.083. With LSENDFVSVFGITRGQFAALPGWKQLQMKKEKGLF the figure was -0.317 ± 0.19; with LSEFDFVSVFGITRGQFAALPGWKQLQMKKEKGLF, -0.063 ± 0.17; with LSESDFVSVFGITRGQFAALPGWKQLQMKKEKGLF, 0.019 ± 0.056. Regarding LSEHDFVSVFGITRGQFAALPGWKQLQMKKEKGLF, the abundance fitness is -0.277 ± 0.18.

Consider LSEPDFVSVFGITRGQFAALPGWKQLQMKKEKGLF, for which the abundance fitness is -0.076 ± 0.062. For LSECDFVSVFGITRGQFAALPGWKQLQMKKEKGLF, the abundance fitness is -0.846 ± 0.1.

Consider LSEGDFVSVFGITRGQFAALPGWKQLQMKKEKGLF, for which the abundance fitness is -0.001 ± 0.052.

For LSEEDFVSVFGITRGQFAALPGWKQLQMKKEKGLF, the abundance fitness was 0.018 ± 0.09. Under LSEVDFVSVFGITRGQFAALPGWKQLQMKKEKGLF stands 0.002 ± 0.06.

For the variant LSEADFVSVFGITRGQFAALPGWKQLQMKKEKGLF, the abundance fitness was -0.064 ± 0.059. With LSEWDFVSVFGITRGQFAALPGWKQLQMKKEKGLF the figure was -0.267 ± 0.09; with LSETDFVSVFGITRGQFAALPGWKQLQMKKEKGLF, -0.202 ± 0.072. With LSEQPFVSVFGITRGQFAALPGWKQLQMKKEKGLF, the abundance fitness was -0.651 ± 0.12. For LSEQRFVSVFGITRGQFAALPGWKQLQMKKEKGLF, the abundance fitness is -0.188 ± 0.068. Under LSEQCFVSVFGITRGQFAALPGWKQLQMKKEKGLF stands -1.17 ± 0.25; under LSEQTFVSVFGITRGQFAALPGWKQLQMKKEKGLF, -0.255 ± 0.073; under LSEQMFVSVFGITRGQFAALPGWKQLQMKKEKGLF, -0.332 ± 0.14. LSEQYFVSVFGITRGQFAALPGWKQLQMKKEKGLF: the abundance fitness was -0.782 ± 0.32. On to LSEQEFVSVFGITRGQFAALPGWKQLQMKKEKGLF, for which the abundance fitness is -0.073 ± 0.075. As for LSEQSFVSVFGITRGQFAALPGWKQLQMKKEKGLF, the abundance fitness was -0.031 ± 0.06. Under LSEQGFVSVFGITRGQFAALPGWKQLQMKKEKGLF stands -0.188 ± 0.068; under LSEQKFVSVFGITRGQFAALPGWKQLQMKKEKGLF, -0.146 ± 0.075.

Turning to LSEQLFVSVFGITRGQFAALPGWKQLQMKKEKGLF, the abundance fitness was -0.209 ± 0.059.

As for LSEQQFVSVFGITRGQFAALPGWKQLQMKKEKGLF, the abundance fitness was -0.204 ± 0.077. Under LSEQVFVSVFGITRGQFAALPGWKQLQMKKEKGLF stands -0.521 ± 0.077. In the case of LSEQWFVSVFGITRGQFAALPGWKQLQMKKEKGLF, the abundance fitness is -1 ± 0.11.

For the variant LSEQDTVSVFGITRGQFAALPGWKQLQMKKEKGLF, the abundance fitness was -0.183 ± 0.068. With LSEQDAVSVFGITRGQFAALPGWKQLQMKKEKGLF the figure was -1.28 ± 0.14; with LSEQDQVSVFGITRGQFAALPGWKQLQMKKEKGLF, -0.402 ± 0.079. Turning to LSEQDYVSVFGITRGQFAALPGWKQLQMKKEKGLF, the abundance fitness is -0.224 ± 0.16. Regarding LSEQDEVSVFGITRGQFAALPGWKQLQMKKEKGLF, the abundance fitness is -0.906 ± 0.083.

Turning to LSEQDWVSVFGITRGQFAALPGWKQLQMKKEKGLF, the abundance fitness is -0.186 ± 0.072. With LSEQDHVSVFGITRGQFAALPGWKQLQMKKEKGLF the figure was -0.87 ± 0.31; with LSEQDIVSVFGITRGQFAALPGWKQLQMKKEKGLF, -0.162 ± 0.12.

As to LSEQDNVSVFGITRGQFAALPGWKQLQMKKEKGLF, the abundance fitness was -0.928 ± 0.17.

Consider LSEQDCVSVFGITRGQFAALPGWKQLQMKKEKGLF, for which the abundance fitness turned out to be 0.06 ± 0.095. Under LSEQDPVSVFGITRGQFAALPGWKQLQMKKEKGLF stands -0.461 ± 0.12. Under LSEQDVVSVFGITRGQFAALPGWKQLQMKKEKGLF stands -1.19 ± 0.088; under LSEQDRVSVFGITRGQFAALPGWKQLQMKKEKGLF, -0.468 ± 0.051; under LSEQDDVSVFGITRGQFAALPGWKQLQMKKEKGLF, -0.831 ± 0.1. LSEQDKVSVFGITRGQFAALPGWKQLQMKKEKGLF: the abundance fitness is -0.514 ± 0.11. With LSEQDGVSVFGITRGQFAALPGWKQLQMKKEKGLF the figure was -1.08 ± 0.083; with LSEQDSVSVFGITRGQFAALPGWKQLQMKKEKGLF, -0.488 ± 0.087; with LSEQDFVSAFGITRGQFAALPGWKQLQMKKEKGLF, -0.222 ± 0.064.
